Reference: the DeepSol protein solubility set

Test: soluble on expression in E. coli; label from the status in PepcDB or PDB records

Soluble on expression in E. coli, not soluble:
MYHVPLIPRDAGREETIFRINQSLQKLLRVSDEIFDRVEHRITRIHGKAEAIDRRTEVLEKKLESLQESDKVITFTLPRQLPKLPEEPPTSTSLFRINIDTEHFPGSEELPAFRRADDHVLRPCEPIDFTYELNKPDKFFLTSQVLKEYEQKGWERYKKRLLGGLRELSRSPEHIAELFYAGTSIPAFEGVSGDFSKKALDADDDGGTSRSGRTTDELAQLRLHEQLLEDTALSSTLMQEDSLDDNHPLAFRINFNEKKKKTAKMVEMPDSLPNLKGHAHDFTLRDPEIDEDRLLDILPADDQIPEASEPTEAEADAPTTFILPPPPPPMKLDPSPQPAATPVEITEIPPIISPPAPPPPPPPPPPPPPPQTPSASSSVTFSPTKSVDGGRSDLMAAIRAAGGAGNAKLSRIAEKPKRKGKFDGILESSALLGASETPRNSAPAPDGGGGGGDLMSALSKALDARRKAINGKVEAQPPAKVSSTIPAPPNFDDEEWD
MKYVIGIDGGGSKTHMKISTLDYKVLLEVFKGPSNINSSTKEEVKRVLQELIMEGLGKLGQSLEECSAICIGTAGADRTEDKSIIEDMIRSLGYMGKIIVVNDAEIALAGGIEKREGIIVISGTGSICYGRNKEGRSARSGGWGHIIGDEGSGYDIGIKAIKAALKSFDKRGEKTILEGDILDFLKLKSHEDLINYIYRSGVTKKEIASLTRVVNSAYIKGDLVSKRILKEAARELFLSVKAVVEVLSMQNKKVVLTTAGGVINNINYLYDEFRKFLNLNYPKVKIISMKNDSAFGAVIIARSECDMAGDPLEHHHHHH
MGSDKIHHHHHHMRIQVASDLHHELAVSNSAMAARLEHADDAVDVLVLAGDIHNQTGAIDLYADYPVPVVYVCGNHEFYGTEMLQLLPELRRRAVGTSVKLLEKDELILNNVRFLGCTMWTDYHAFPLCLNTAMEYARNHMLDHQRIRESNNGRFEPEDAAEEQRAALEFLVRKIREPFPGKTVVITHHAPSARSIHQHEQNNPLVPAFASNLEFLASEADLWIHGHIHLSSDYRLGNCRVICNPRGYPGRRNRSNPALAYENAQFDARKVIDV
MISLPAGSRIWLVAGITDMRNGFNGLASKVQNVLKDDPFSGHLFIFRGRRGDQIKVLWADSDGLCLFTKRLERGRFVWPVTRDGKVHLTPAQLSMLLEGINWKHPKRTERAGIRI
MPGNSGNDRSVVVGRVSGAFGVRGWVKAVSFTDPPVNLVGYRPWTLRRGDAERRADVLEGREHGNAVIVRLQGVDTREQAEALKGFEVTVRRSQLPPPAPGEYYRVDLVGLKVVNLGETVLGEVVDVMETGANDVLVVQGDRERLLPFVQGVFVKSVNLEESRIVVDWDPGFLEHHHHHH
MGSDKIHHHHHHMAETFPLLAAQPIYDNKNRFYAVELLYRSALNLTAETVGDTAATSEVVFNLCAGITSQTEHYDATAFINVSSEFLVSQSFLPLEPDKVVIELVERIKPTRAVVNAVARWYEKGFRFALDDFEFDPAWEPLLQYASYIKVDVSTLTLAQARVFKQKLSGFKGKWLAERVEDEATKQAYEELGFELFQGYYFAKPAIVYGTRLEPSSLQLAKVLSLCFEEEPDLTELSRVISEDPQLSVCLLKIVNSPLYPTASPITRVKDVIMRLGIEKLRRWIALIGAVTASSPEASRMVLVRAQMCYELAKWKSSPGLDADQCYFVGLLSGVDIMLGVDKASFFEKLPLSEQTRKAVEDCDGPMGQCLRIALKLERLVRMKEGLDKVDSRLLTTYQSVSTKVQELFNTI
MAHHHHHHMVRKVWIGQGDVVLVSKRSFNKNDIVDVIHRYNPAEVRALVKDEVIPRDFRSSDERDAKNAHSDYVFVAENDDDGGADDDDQNVLDRNKVVLDDPLATFDEL
MAHHHHHHMGANGSKTASSSSAVPAATTTTGDNKGTVNRWYGAVSDASDADLGLAPDVSLSSDISTPEENAAKRKAYAHLQSPYARHQLAASMKGRGSSGNNGAEASATAHVNLIEQIYNEDFETIDHIQALRLPPMVSQQLKNTVRSEAERRCAEVEKTMARCLQDKMWTSWKCQKERDTYYHCVEEIEQRNLRPDPTNPHWVDMLTSFRWKYNLGVFHGEIIGRNNIMKQIWREHYPDRELPHPWVKDA
MRETIPIKYIDTIEINKLSIQDLEDLSSCKYKLLSAYLIGKIPANKILDADELEIYHNERTKKILAKAIKARKLVIVLKATRLCNLRCTYCHSWAEGPNQTILFSTLIHIVRQILAIPNVNRFEFVWHGGEVTLLKPAFFKKLIWLQEQFKRPEQYITNTMQSNIVNISDEWLIFIKGIGMNVGISLDGIPAVNDKRRVDFRGRGTSDRIAKGIKKLQKYDILYGALIVVDREVYQTDMREMLDYFILIELNGIEFLNIVPDNRLTAGEDIGNNFISYAEFIKFLSALFVIWIKGYREKIHIAIFEDFISVLEHPEKKLSACYWSGNCSQEIITLEPNGDVSPCDKYRGDAGSIYGSLLKTDLAGLLTQSSHNQQAIDEEVAATRKMQHCEWFSICHGGCPHDRVINRRHTKGYNDECCGTGKLLATIKAYLADIR
MVASYEIEFIGEGEVAGILREALRTDSRVESFEEFERGFKLRLVGAKRRITIVCKGSVQSDDCLLIVNARKMPENGGIALNADKIAERCGSKPEIAMLGAIAKLGVVDLKRLMSVIYREMGYGDVLAVKKGFEATNI
MSVASLPECVKNFFPTEQLEFSSSITADEKPVLHEVFQKHSCFSQCGEMIDEVSKKHPELGKRLATVLEGNKKRLDGLSPAAVEYAKKLIHMVTTTLCSLTVGKPIDDADAKRLHQEFQSLSSEDQAALRKNNPDIKF
MVATLIIIRGNSASGKSTIAKQLQAELGENTLLLSQDYLRREMLGTKDGENTTTIPLLINLLNYGYHNCSYIILEGILRSDWYTPVWKHILKHNPNNTYAYYYDLSFQETVKRHSTR
MAHHHHHHMPHAGNKLVPIGCNMNDAAYPFRGEHRLANCINHGHSGVVKRIPTSIAMRISGSNLVIEEVKTPKGVELECELGVDGGIARPVSLQQASAFMVPSDGHNYNLIAAVKASGNPMKHYCKLTFNGSEGITVLRMRAPEGCSPDAVYIVADGRRLRPTAGWFRIPIHTKECALVANLPLDDAPPPPPPPPPPPPPPPSFSFTATPPLPPAPSGGLAEKTLEATTGAPWTAENVPELETRIHPPLIPNAGAVTLTEPVPAAMPSFVATAPGFSLQLTGENGSSVFGVGVAALPLSHRRAQTVQIVVSDAQGRVLLRQRSHVPSLEPAAVSLAVKDDGKGGLALSANPGSKITVGGVPQADPSATAVLPRVVPQRAVVEQPNADGSVSKATLDVAPTSEPAPVSAAVSKQLPQQPQAPALPEAWVKELSDALQNSNPEEQRHLLQRIYPSSIPGVTIVNFVRDQLTRQPPAISFTVSSNGLEAVQCPGCSVTAAVGNDPARQIPAFGSVALASGKSALLTATSTVRHSAVSACRVQIGVPSAVAFTSPTVSAYPPHAAAGPPMQAGPSADERADSDVVSRLVDCLLRHNLSAPLVARELDSMSTAPFSAQGRRMLSLLTSCLRSATASGAAAAMQAASTQAAAITHAAPEEIFFTCGPGYVDNIYTTQPQYQLFGAVDNQAPQGGAAARPDTCAGYSRG
MGSDKIHHHHHHMDTAKTKPFDEMFLQDEVIRPIYAEYAAWLQDVPHQQLESKRQEAELLFRRVGITFNVYGEDAGAERLIPFDVVPRILSASEWARLSDGAIQRVKALNMFLHDVYHDQEIIKAGIVPSSILANAQYRPEMFGVDVPGGVYAHIAGVDLVRTGENDFYVLEDNLRTPSGVSYMLENRKMMMRLFPELFRRYPVAPVEHYPQVLLNNLRAVAQAGVHEPTVVLLTPGAYNSAYFEHAFIAQQMGIELVEGQDLFVRNNAVYMRTTEGPKRVDVIYRRIDDDFIDPLSFRPDSMLGVPGLLSVYRNGGVTLANAVGTGVADDKDTYIYVPEMIRFYLGEEPILSNVPTYQLSKADDLKYVLDNLAELVVKEVQGSGGYGMLVGPAASKQELEDFRQRILANPANYIAQPTLALSTCPTLVETGIAPRHVDLRPFVLSGKTVSLVPGALCRVALREGSLVVNSSQGGGTKDTWILKD
MAEGGTPVVATKPPVDNAKMLGELKLRLMHTKKGLLAIRGELQRRAEIWGAAQEEITALEKMASDAKERIQKQSDQKREERKLAAQKRKELKQKQKEEKKEESKDEKDGADDEKNDEN
MGSDKIHHHHHHMKVLVPATTTNLGAGFDVFGLALDLFNEVEFSFDTKETTIESTGKYASDLKDHNLFFEVLRFFERKTGYRVPPVRIKQTCNIPVSSGLGSSAAVIVAALHIANEGTGRNLSREDLMKLAVELEGHPDNVVPAFTGGLVVCYQNGSHLDFEKFEIDLSLTFLVPNFPVCTNEMRKILPEKVPFEDAVFNIKNSCQFLAKIAAGKIKEALKYVGDRLHQNYRINGNKKMKEFVEAILSKNPEYWFVSGSGPSVCSNINDFEGIPYLKDVLKLRVNNRGMIVSE
MAVDAVNSAAANPWANAGASSSDKNAASLNYDSFLKLLIAQMKNQDPTSPMDAGQQMSQLASFSQVEQTIKTNTHLKSMLQAEALTRASDLVGKTVMSADDKVTGVVKEVQVFSDGIVAVTEAGDKVLLQAGVVFSNGPITTKSDETTADSNNSAGS

Soluble on expression in E. coli, soluble:
MTRIVVLGAGFAGLWAAIGAARKRDEIGAAGRDIEIRVVDRNPYHNIRVRNYEVDLSEVALPLGQLLDPIGVTHGLGEVEAIDPARREISLVTSDGEETLGYDRLVLAVGSEVTRPDIPGLADHAFDVDTYIAALRLEDHLVSLGRSVPSPGRSTVVVVGAGFTGIEVAAEMPDRLARAGITGSRCIILVDPNPTVGATIGAHARPVIETALSALDIETRLGARVASVEAAGVQLSSGEFIPAQTVIWCAGLRASRLAASLPGARDRLGRLLVDPFMRVADLPCVFAAGDVASSVVDGLHPTVMSCQFARPMGRFAGHNVVADLLGLPMLPLRIDWYVTVLDLGSWGALYTEGWDREVRTTGAAAKATKQTINRKRIYPPLNGSKDELFAAAAPTVQTPPPTYGARLEHHHHHH
MMKEFTPAPDSASIVSVTDRVKPVALGMGVTSVHFLGDRAAFVGGEENVAFVDSQGEITTVAVHGGGILSTASDGKRLVMGGDDGKVVSLDAKGEVTLLATDPKRRWIDAVALHADGAFAWSAGKTATVKSGKTEEKSLEVPSTVGGLAFAPKGLRLAIAHYNGATLWFPNMAASAEFLPWAGSHHAVTFSPDNKFLVTAMHEPALHGWRLADNRHMRMTGYPGRVRSMSWSAGGKALATSGADTVILWPFGSKDGPMGKEPAMLAPLQARVSVVACHPKNDILAAGYSDGTVLMVRLEDGAEILVRRNGTPPVAALAWNAKGTLLAFADENGDGGLLELLEHHHHHH
GGLPIVGDIFRFLDNGRTGLYENYKEFSTELNMTRESNGVKVTINDVISDGRTLSITYSLESEQDLGDDPIILGGLDIMDAHGSSGSGKMTKVTEKKYVGMVTTTHHDSNKKDKVNFRWNIEGIEIPDRKKSIQGHWNFALTVKSMDSKERTIGGSSEKEGIKANMEKVAMSPVSFILYYNQEVSKGARKEWDSVDVELTVKDDLGNDYSGEGNGGSGNDPYNIRWSATFQKLNENATKLIVTPRVHLRVHTPENHGGVEYVNGKEKKIEVPNKEAKKKDIVLDDIVIDLKK
MSLKLTRLSLWHIPLTSHETYYMAGGKTCDTTMTTLIRLDTDSGLSGWGEVCPIPHYLPAYADGVAPALTELAPIILGADPLGAEALMERCNAYLLGHDYAKSALDIALWDITARAAGLPLHALLGGRAMADMPLYHSITCVAPDEMARIARDAQAQGMTQFQVKLGADGDWQADVARLSHVREAVGPGPLVYGDWNCGSDSLTASRVGRAVAHLDVMLEQPCRTIQECAAVRDATGLPMKLDETAHDIPSLLDGHRRGCMDAVALKLSKFGGLSATRRARDLCLALGTRMCIEDTWGSDVTTAALLHLAAATPARGLMNTCDLSHYVGPRLAPDGPTRHMGRIAPPEGPGLGITPDMDVLGTPQLILDEGHHHHHH
